In PMC6722078, “Defects in t^6A tRNA modification due to GON7 and YRDC mutations lead to Galloway-Mowat syndrome” (Nature Communications, 2019):

T1: LAGE3 (full-length, subunit of the recombinant GON7/LAGE3/OSGEP complex) (human, UniProt Q14657 1-143)
T1 construct: LAGE3, human, KEOPS subunit (homolog of Pcc1); full-length protein used for all structural work; no electron density for the 60 N-terminal residues; source: recombinant, co-expressed with the other KEOPS subunits, purified (size exclusion chromatography, NiIDA); details in Supplementary Methods
T1 sequence (looked up): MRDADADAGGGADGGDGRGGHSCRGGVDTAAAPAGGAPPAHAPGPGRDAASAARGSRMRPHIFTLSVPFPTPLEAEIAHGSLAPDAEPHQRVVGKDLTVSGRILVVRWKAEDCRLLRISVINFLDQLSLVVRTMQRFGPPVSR


Target: T1, LAGE3 (full-length, subunit of the …)
Assay: SEC-SAXS; SAXS on samples eluting from an online size exclusion HPLC column; 20 mM MES pH 6.5, 200 mM NaCl, 5 mM 2-mercaptoethanol; purified recombinant GON7/LAGE3/OSGEP complex
Conditions: both partners purified

Row | stoichiometry N | Binder
1 | 1 | OSGEP (full-length, subunit of the recombinant GON7/LAGE3/OSGEP complex) (enzyme, human, UniProt Q9NPF4 1-335, looked up, OSGEP, human, catalytic subunit of the KEOPS complex (homolog of Kae1); full-length protein used for all structural work; source: recombinant, co-expressed with the other KEOPS subunits, purified (size exclusion chromatography, NiIDA); details in Supplementary Methods) MPAVLGFEGSANKIGVGVVRDGKVLANPRRTYVTPPGTGFLPGDTARHHRAVILDLLQEALTESGLTSQDIDCIAYTKGPGMGAPLVSVAVVARTVAQLWNKPLVGVNHCIGHIEMGRLITGATSPTVLYVSGGNTQVIAYSEHRYRIFGETIDIAVGNCLDRFARVLKISNDPSPGYNIEQMAKRGKKLVELPYTVKGMDVSFSGILSFIEDVAHRMLATGECTPEDLCFSLQETVFAMLVEITERAMAHCGSQEALIVGGVGCNVRLQEMMATMCQERGARLFATDERFCIDNGAMIAQAGWEMFRAGHRTPLSDSGVTQRYRTDEVEVTWRD
2 | 1 | GON7 (full-length, subunit of the recombinant GON7/LAGE3/OSGEP complex) (natural protein, human, UniProt Q9BXV9 1-100, looked up, GON7 (alias C14orf142), human, fifth subunit of the KEOPS complex; full-length protein used for all structural work; only residues 1-20 and 25-50 are seen in the crystal; also called C14orf142; GON7-his; source: recombinant, co-expressed with the other KEOPS subunits, purified (size exclusion chromatography, NiIDA); details in Supplementary Methods) MELLGEYVGQEGKPQKLRVSCEAPGDGDPFQGLLSGVAQMKDMVTELFDPLVQGEVQHRVAAAPDEDLDGDDEDDAEDENNIDNRTNFDGPSAKRPKTPS
